Data on two molecules can be found in publication PMC3320612, “Structural Basis of Cytotoxicity Mediated by the Type III Secretion Toxin ExoU from Pseudomonas aeruginosa” (PLoS Pathogens, 2012).

Several values for one entry are separate records, joined by “and”; a condition that tells them apart may be missing. Equal values may be shown once.

Data set [1] deals with ExoU(30–687) (Pseudomonas aeruginosa (clinical strain, GESPA 1999 collection)) (UniProt O34208). As to the kind of experiment: native MS; purified ExoU∶SpcU complex, 15 µM in 20 mM ammonium acetate, electrospray, positive mode, Micro-TOF-Q.
Data set [2] concerns the molecule itself. As to the kind of experiment: crystal structure; co-expressed, co-purified ExoU(30–687)∶SpcU(1–127) complex; crystals in 0.1 M KNO3, 20% PEG 3350; SAD on the selenium edge, C2 cell, 2.94 Å.

Consider “SpcU(1–127) (from UniProt O66100 1-127) (domain or fragment)”, for which the stoichiometry N (SpcU per ExoU (printed as ExoU∶SpcU)) in data set [1] is 1 and 2.

B1: SpcU(1–127) (domain or fragment)
chain: MIDTWLAQWGLRLPSSNDATLRLQPAEGPELVMERLEGGWLFVVELGLVPSGLPLGVILQLLQVNSPFSSLAPVKLAADDAGRLVLWAEARDGVDDVDALNRLHDRLREGHSRLVPLLEPTGELVPA
modifications: selenomethionine in the crystals (SAD on the selenium edge)
notes: SpcU, type IA T3SS chaperone of ExoU, Pseudomonas aeruginosa; full length is 1-137; stop codon introduced after residue 127; amplified from a clinical strain (GESPA 1999 collection); also called chaperone SpcU
As to B1, the binding result in data set [2] is listed as “binds”.
